The text below walks through data of US20260250410A1, “ANTIBODY AND USE THEREOF” (SICHUAN HUIYU PHARMACEUTICAL CO., LTD., priority 2022, published 2026).

One test deals with T1, HuCDCP1-C (Homo sapiens, UniProt Q9H5V8).
T1 construct: made in house; host or cells: HEK-293T
T1 sequence (Q9H5V8 30-667): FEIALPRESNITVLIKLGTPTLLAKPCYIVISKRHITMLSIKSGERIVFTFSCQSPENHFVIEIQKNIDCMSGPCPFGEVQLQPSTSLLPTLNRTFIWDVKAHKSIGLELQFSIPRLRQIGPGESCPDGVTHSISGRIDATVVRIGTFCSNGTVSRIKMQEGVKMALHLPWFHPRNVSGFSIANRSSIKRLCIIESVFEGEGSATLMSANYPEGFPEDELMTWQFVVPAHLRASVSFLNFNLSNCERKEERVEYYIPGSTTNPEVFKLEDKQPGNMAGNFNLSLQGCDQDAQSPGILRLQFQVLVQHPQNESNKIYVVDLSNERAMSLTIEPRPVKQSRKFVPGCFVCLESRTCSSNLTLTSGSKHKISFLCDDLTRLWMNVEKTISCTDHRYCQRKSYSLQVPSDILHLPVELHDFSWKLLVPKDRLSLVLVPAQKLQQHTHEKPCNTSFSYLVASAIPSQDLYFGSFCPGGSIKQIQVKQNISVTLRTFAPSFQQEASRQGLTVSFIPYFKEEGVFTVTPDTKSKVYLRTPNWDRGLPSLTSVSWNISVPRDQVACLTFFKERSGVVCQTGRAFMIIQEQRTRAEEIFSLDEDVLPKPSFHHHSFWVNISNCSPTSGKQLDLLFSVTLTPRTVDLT
The test can be described thus: Caterra affinity of humanized anti-CDCP1 antibodies. The note with it: HuCDCP1-C 2 μg/ml immobilized. Format: binding. The protocol: The humanized anti-CDCP1 antibodies obtained from Example 11 were subjected to gene cloning, constructed into pTT5 expression vector for a small amount of expression in CHO cells (Expi-CHOS: Gibco A29127), and purified with an Fc affinity column (AT Protein A Diamond Plus. No. AA402312). Antibody purity was analyzed by HPLC and determined by Nanodrop. High-throughput affinity assay was carried out for a small amount of antibodies by Caterra.

For test [1], the system named is MDA-MB-231 cells. Put plainly: Endocytosis capacity of humanized antibodies. Format: cell-based, human. The note with it: antibody 1.5 μg/mL; for 1 h endocytosis (%): MDA-MB-231, 1 h at 37° C.; for 2 h endocytosis (%): MDA-MB-231, 2 h at 37° C. How it is done: The endocytosis capacity of the anti-CDCP1 humanized antibody was detected with reference to example 5. MDA-MB-231 cells were subjected to digestion with 5 mM EDTA, and plated at 3×10^4 cells/well after cell counting. After adding an Fc blocker and blocking at room temperature for 10 mins, a test antibody (1.5 μg/mL) was added, and the mixture was incubated at 4° C. for 30 mins, centrifuged, and washed twice with PBS+2% FBS, then the cells were divided into three equal portions (labeled as 0 h, 1 h, 2 h), cells labeled as 1 h and 2 h time points were added to 200 μL of cell culture medium, and cultured at 37° C. for 1 h and 2 h, respectively. Cells at 0 h point were centrifuged, a secondary antibody (PE anti-human IgG Fc Antibody, Biolegend, 410708) was added, and the mixture was incubated at 4° C. for 30 mins, centrifuged, and washed twice with PBS+2% FBS, and detection was performed using a flow cytometer. After incubation of cells labeled as 1 h and 2 h points at 37° C. was completed, a secondary antibody was added (in the same steps as those at 0 h point), Geo-MFI of the signal under the same voltage was collected as detection signal at 0 h, and antibody internalization rate was calculated according to the following equation: Internalization (%)=(Geo-MFI (0 h)-Geo-MFI (1, 2 h))/Geo-MFI (0 h)×100%.

The test system of another test is PC3 cells. Put plainly: Endocytosis capacity of murine monoclonal antibody (flow cytometry internalization). Format: cell-based, human. The note with it: PC3, 2 h at 37° C., antibody 1.5 μg/mL. The protocol:
(§1) The endocytosis capacity of the antibody was detected for 0.5 to 2 hours. MDA-MB-231 and PC3 cells were subjected to digestion with 5 mM EDTA, and plated at 4×10^4 cells/well after cell counting. After adding an Fc blocker (Human TruStain FcX™, Biolegend, 422302) and blocking at room temperature for 10 mins, a test antibody (1.5 μg/mL) was added, and the mixture was incubated at 4° C. for 30 mins, centrifuged, and washed twice with PBS+2% FBS, then the cells were divided into four equal portions (labeled as 0 h, 0.5 h, 1 h, 2 h), cells labeled as 0.5 h, 1 h, 2 h time points were added to a cell culture medium at 200 µL/well, and cultured at 37° C. for 0.5 h, 1 h, 2 h, respectively. Cells at 0 h point were centrifuged to remove supernatant, a secondary antibody (PE anti-human IgG Fc Antibody, Biolegend, 410708) was added, and the mixture was incubated at 4° C. for 30 mins, centrifuged, and washed twice with PBS+2% FBS, and detection was performed using a flow cytometer. After incubation of cells labeled as 0.5 h, 1 h, and 2 h points at 37° C. was completed, a secondary antibody was added (in the same steps as those at 0 h point), Geo-MFI of the signal under the same voltage was collected as detection signal at 0 h, and antibody internalization rate was calculated according to the following equation: Internalization (%)=(Geo-MFI (0 h)-Geo-MFI (0.5, 1, 2 h))/Geo-MFI (0 h)×100%.
A general note: Flow cytometry measures light scatter and fluorescence of single cells or particles in a stream.

The test system of test [2] is MDA-MB-231 cells. Described as above. Format: cell-based, human. The note with it: MDA-MB-231, 2 h at 37° C., antibody 1.5 μg/mL. The protocol: as §1
Test [3] deals with MDA-MB-231 cells. Put plainly: Transwell tumor cell migration experiment. Format: cell-based, human. The note with it: MDA-MB-231, antibody 10 μg/ml. The protocol:
In order to determine the effect of antibodies on tumor cell metastasis, the migration ability of tumor cells was examined in this study according to a transwell experiment. The specific cell migration experiment involved culturing and collecting MDA-MB-231 cells, washing them once with PBS, adjusting the density to 8×10^5 cells/mL, adding the antibody to be tested to the cells such that the working concentration thereof was 10 μg/ml, co-incubating for 30 mins, adding a cell suspension to the upper chamber of the transwell chamber, placing the transwell chamber in the incubator for 12-48 h, then removing the chamber (transwell chamber, to examine cell migration ability), immobilizing the cells, staining the cells with crystal violet for 15 mins, washing, air drying, mounting, and taking photos of 4-5 fields of view under a microscope, and counting the number or area of the stained cells using imageJ analysis software, the number or area was used as the basis for determining tumor cell migration.

Where a chain is given by its changes, count along the chain named.

B1: 1CP-128: humanized anti-CDCP1 antibody produced by 3C11; VH SEQ ID NO: 339, VL SEQ ID NO: 352 (antibody, V domains shown)
VH: QVQLVQSGAEVKKPGASVKVSCKASGYNFISYWLHWVRQAPGQGLEWMGGIYPGNTDTTYNQKFKGRVTMTRDTSTSTVYMELSSLRSEDTAVYYCIRYDYDRGMDYWGQGTLVTVSS
VL: DIQMTQSPSSLSASVGDRVTITCRASEDIYYRLAWYQQKPGKAPKLLISGATALETGVPSRFSGSGSGKDYTLTISSLQPEDIATYYCQHYWNIPWTFGQGTKVEIK
modifications: humanized antibody 3C11 heavy chain variable region 01; humanized antibody 3C11 light chain variable region 02
Regarding B1, in the test with HuCDCP1-C, the “ka” value was found to be 139000 M⁻¹ s⁻¹ and the “kd” value is 1e-05 s⁻¹. Also, in the test with MDA-MB-231 cells [1], the “1 h endocytosis (%)” value worked out at 36.87% and the “2 h endocytosis (%)” value came to 55.68%.

B2: 1CP-129: humanized anti-CDCP1 antibody produced by 3C11; VH SEQ ID NO: 340, VL SEQ ID NO: 352 (antibody, V domains shown)
VH: B1 VH with R72A
VL: B1 VL
modifications: humanized antibody 3C11 heavy chain variable region 02; humanized antibody 3C11 light chain variable region 02
Take B2: in the test with HuCDCP1-C, the “ka” value worked out at 160000 M⁻¹ s⁻¹ and the “kd” value came to 1e-05 s⁻¹. Moreover, in the test on MDA-MB-231 cells [1], the “1 h endocytosis (%)” value was 36.18% and the “2 h endocytosis (%)” value worked out at 54.25%.

B3: 14A10C5: anti-CDCP1 murine monoclonal antibody (hybridoma); VH SEQ ID NO: 257, VL SEQ ID NO: 307 (antibody, V domains shown)
VH: EVKLVESGPGILQPSQTLSLTCSFSGFSLSTSGMGVSWIRQPSGKGLEWLAHIYWDDEKRYNPSLKSRLTISKDTSSNQVFLKITSVDTADTATYYCAREGSANWEAMDYWGQGTTVTVSS
VL: DIVMTQAALSLPVSLGDQASISCRSSQNIVYTNGITYLEWYLQKPGQSPKLLIYKVSNRFSGVPDRFSGSGSATDFTLKISRVEAEDLGVYYCFQSSHVPWTFGGGTKLEIK
modifications: 14A10C5 heavy chain variable region; 14A10C5 light chain variable region
On to B3, for which the “Internalization PC3 (%) 2 h” value with PC3 cells is recorded as 51.73%. In addition, the “Internalization MDA-MB-231 (%) 2 h” value in the test with MDA-MB-231 cells [2] was determined as 39.23%. In the test with MDA-MB-231 cells [3], the “effect on tumor cell migration (transwell, FIG. 4c)” value was “better capability to inhibit tumor cell migration than SEQ135”.

B4: 1CP-152: humanized anti-CDCP1 antibody produced by 8C9; VH SEQ ID NO: 344, VL SEQ ID NO: 354 (antibody, V domains shown)
VH: EVQLVESGGGLVQPGRSLRLSCTTSGLTFTHYHMSWVRQAPGKGLEWVAIIRNKAYGYTTDYSASVRGRFTISRDDSKSILYLQMNSLKTEDTAVYYCVREGGYGYDGTFAYWGQGTLVTVSS
VL: DIQMTQSPSSLSASVGDRVTITCRASESVDNYGISFMNWFQQKPGQAPKLLIYAASNQGSGVPSRFSGSGSGTDFTLTISSMQPEDFATYYCQQSKEVPRTFGGGTKVEIK
modifications: humanized antibody 8C9 heavy chain variable region 02; humanized antibody 8C9 light chain variable region 01
For the molecule B4, in the test with HuCDCP1-C, the “ka” value is 114000 M⁻¹ s⁻¹ and the “kd” value was 0.000465 s⁻¹. Besides, in the test on MDA-MB-231 cells [1], the “1 h endocytosis (%)” value came out at 54.39% and the “2 h endocytosis (%)” value is reported as 69.96%.

B5: 1CP-157: humanized anti-CDCP1 antibody produced by 8C9; VH SEQ ID NO: 345, VL SEQ ID NO: 355 (antibody, V domains shown)
VH: B4 VH with L45P
VL: B4 VL with A47P
modifications: humanized antibody 8C9 heavy chain variable region 03; humanized antibody 8C9 light chain variable region 02
In the case of B5, in the test with HuCDCP1-C, the “ka” value was 122000 M⁻¹ s⁻¹ and the “kd” value was determined as 0.000385 s⁻¹. In the test with MDA-MB-231 cells [1], the “1 h endocytosis (%)” value is 56.06% and the “2 h endocytosis (%)” value was determined as 70.74%.
